Data published in the RNAGym collection of RNA variant scans (doi:10.1021/acssynbio.7b00057).

B1: Pistol ribozyme (parent)
chain: GGGUCGUUGUUCCAUAAUCGCGUGGAUAUGGCACGCAAGUUUCUACCGGGCACCGUAAAUGUCCGACUGGAGCCGUUCGGGCGGCUAUAAACAGACCUCAGGCCCGAAGCGUGGCGGCACCUGCCGCCGGUGGUAAAAAAGAUCGGAAGAGCACACGUCU

Variants of: B1
Assay: aptazyme ON/OFF ratio, guanine; higher = stronger switching; co-transcriptional cleavage with and without guanine

First: U8G U10A U11G C12G
Second: U8G U10A U11G C12U
The “aptazyme ON/OFF ratio” value of the first is lower: 1.2 for the first, 1.23 for the second.

Compared with G9A U10A U11C C13A, G9A U10A U11C C13U is lower in “aptazyme ON/OFF ratio” value: 1.13 for the first, 1.01 for the second.

Compared with G9A U10A U11C C13G, U8G U11C C12G C13G is higher in “aptazyme ON/OFF ratio” value: 1.09 for the first, 1.3 for the second.

Going from U8G U11C C12G C13U to U8G U11C C12G C13A, the “aptazyme ON/OFF ratio” value rises from 1.2 to 1.25.

Going from U8G U10G U11G C12U C13A to U8G U10G U11G C12U C13G, the “aptazyme ON/OFF ratio” value falls from 1.42 to 1.31.

Going from U8G U10G U11G C12U C13U to G9A U10A C12G C13G, the “aptazyme ON/OFF ratio” value falls from 1.34 to 1.33.

Compared with G9A U10A C12G C13U, G9A U10A C12G C13A is lower in “aptazyme ON/OFF ratio” value: 1.57 for the first, 1.47 for the second.

Compared with U8G U10G U11A C12U C13U, U8G U10G U11A C12U C13G is lower in “aptazyme ON/OFF ratio” value: 1.26 for the first, 1.22 for the second.

Compared with U8G U10G U11A C12U C13A, U8G G9U U11G C12A C13G is higher in “aptazyme ON/OFF ratio” value: 1.14 for the first, 1.19 for the second.

Going from U8G G9U U11G C12A C13U to U8G G9U U11G C12A C13A, the “aptazyme ON/OFF ratio” value falls from 1.21 to 1.14.

First: U8G U10A U11A C12G C13A
Second: U8G U10A U11A C12G C13U
The “aptazyme ON/OFF ratio” value of the first is higher: 1.12 for the first, 1.07 for the second.

Compared with U8G U10A U11A C12G C13G, G9A U10A U11C C12U C13U is higher in “aptazyme ON/OFF ratio” value: 1.21 for the first, 1.26 for the second.

First: G9A U10A U11C C12U C13A
Second: G9A U10A U11C C12U C13G
The “aptazyme ON/OFF ratio” value of the first is lower: 1.34 for the first, 1.36 for the second.

Going from G9A U10A U11A C12G C13G to G9A U10A U11A C12G C13A, the “aptazyme ON/OFF ratio” value rises from 1.2 to 1.26.

G9A U10A U11A C12G C13U and U8G U10C U11G C12G are the same in “aptazyme ON/OFF ratio” value: 1.23 for the first, 1.23 for the second.

Compared with U8G U10C U11G C12U, U8G U10C U11G C12A is higher in “aptazyme ON/OFF ratio” value: 1.33 for the first, 1.35 for the second.

Compared with G9A C12U C13G, G9A C12U C13U is lower in “aptazyme ON/OFF ratio” value: 1.62 for the first, 1.32 for the second.

First: G9A C12U C13A
Second: U8G U10G C12G
The “aptazyme ON/OFF ratio” value of the first is higher: 1.46 for the first, 1.3 for the second.

Compared with U8G U10G C12U, U8G U10G C12A is higher in “aptazyme ON/OFF ratio” value: 1.15 for the first, 1.39 for the second.

Going from U8G U11G C13U to U8G U11G C13G, the “aptazyme ON/OFF ratio” value rises from 1.03 to 1.05.

Going from U8G U11G C13A to U8G U10G U11A C12A C13A, the “aptazyme ON/OFF ratio” value rises from 1.04 to 1.18.

Going from U8G U10G U11A C12A C13G to U8G U10G U11A C12A C13U, the “aptazyme ON/OFF ratio” value rises from 1.14 to 1.3.

Compared with U8G U10A U11G C12U C13U, U8G U10A U11G C12U C13A is higher in “aptazyme ON/OFF ratio” value: 1.12 for the first, 1.15 for the second.

First: U8G U10A U11G C12U C13G
Second: U8G U10G U11A C12G
The “aptazyme ON/OFF ratio” value of the first is lower: 1.22 for the first, 1.28 for the second.

First: U8G U10G U11A C12A
Second: U8G U10G U11A C12U
The “aptazyme ON/OFF ratio” value of the first is lower: 1.18 for the first, 1.38 for the second.

First: G9A U10A
Second: U8G U10G U11C C12U C13A
The “aptazyme ON/OFF ratio” value of the first is higher: 3.05 for the first, 1.06 for the second.

Going from U8G U10G U11C C12U C13U to U8G U10G U11C C12U C13G, the “aptazyme ON/OFF ratio” value rises from 1.04 to 1.14.

First: G9A U10A C12U
Second: G9A U10A C12G
The “aptazyme ON/OFF ratio” value of the first is higher: 1.86 for the first, 1.61 for the second.

Going from G9A U10A C12A to U8G U10A C12U C13A, the “aptazyme ON/OFF ratio” value falls from 1.74 to 1.32.

First: U8G U10A C12U C13G
Second: U8G U10A C12U C13U
The “aptazyme ON/OFF ratio” value of the first is higher: 1.32 for the first, 1.3 for the second.

First: U8G U11G C12U C13G
Second: U8G U11G C12U C13U
The “aptazyme ON/OFF ratio” value of the first is higher: 1.24 for the first, 1.21 for the second.

First: U8G U11G C12U C13A
Second: U8G U10C U11G C13U
The “aptazyme ON/OFF ratio” value of the first is higher: 1.22 for the first, 1.05 for the second.

U8G U10C U11G C13A and U8G U10C U11G C13G are the same in “aptazyme ON/OFF ratio” value: 1.07 for the first, 1.07 for the second.

Going from G9A U10A U11G C12A C13G to G9A U10A U11G C12A C13U, the “aptazyme ON/OFF ratio” value falls from 1.28 to 1.26.

First: G9A U10A U11G C12A C13A
Second: U8G U10A U11C C12A C13U
The “aptazyme ON/OFF ratio” value of the first is lower: 1.07 for the first, 1.14 for the second.

Compared with U8G U10A U11C C12A C13A, U8G U10A U11C C12A C13G is lower in “aptazyme ON/OFF ratio” value: 1.13 for the first, 1.12 for the second.

Compared with U8G U10A C13A, U8G U10A C13U is higher in “aptazyme ON/OFF ratio” value: 1.14 for the first, 1.19 for the second.

Going from U8G U10A C13G to U8G U10C C12U, the “aptazyme ON/OFF ratio” value rises from 1.12 to 3.67.

Compared with U8G U10C C12G, U8G U10C C12A is lower in “aptazyme ON/OFF ratio” value: 1.49 for the first, 1.34 for the second.

Compared with U8G U10A C12A, U8G U10A C12G is lower in “aptazyme ON/OFF ratio” value: 1.48 for the first, 1.23 for the second.

First: U8G U10A C12U
Second: U8G U10G U11C C13G
The “aptazyme ON/OFF ratio” value of the first is higher: 1.17 for the first, 1.02 for the second.

U8G U10G U11C C13U and U8G U10G U11C C13A are the same in “aptazyme ON/OFF ratio” value: 1.04 for the first, 1.04 for the second.
